The values that follow come from paper PMC10992053, “Rationally introducing non-canonical amino acids to enhance catalytic activity of LmrR for Henry reaction” (Bioresources and Bioprocessing, 2024).

Substrate in this data set: O=Cc1ccc([N+](=O)[O-])cc1
The data set is described as follows: purified protein. As to conditions: nitromethane 1 M (excess), 3-18 mM aldehyde, 0.3 mg/mL enzyme, 40 °C, 5 min.

Source text: Henry reaction, product by HPLC, Michaelis-Menten fit on LmrR (Lactococcal multidrug resistance Regulator)

B1: LmrR (Lactococcal multidrug resistance Regulator) (Lactococcus cremoris subsp. cremoris MG1363) (protein)
chain: MAEIPKEMLRAQTNVILLNVLKQGDNYVYGIIKQVKEASNGEMELNEATLYTIFKRLEKDGIISSYWGDESQGGRRKYYRLTEIGHENMRLAFESWSRVDKIIENLEANKKSEAIK
On to B1, for which the Michaelis constant (Km) (as a rule, the substrate concentration at which the rate is half of its maximum) worked out at 9.30 mM; the Vmax (in general, the rate approached at saturating substrate) is 1290 µM/min; the kcat – broadly, the number of substrate molecules converted per active site and unit of time at saturation – came out at 0.967 s⁻¹; the kcat/Km (in general, the second-order rate constant that governs catalysis at low substrate concentration) worked out at 104 M⁻¹ s⁻¹.
